Laboratory results as given in patent US20030203372A1, “Analysis method” (priority 2000, published 2003).

Assays:
[1] = test system: primary human cell cultures (11 cell types); assay: Custom gene array, 11 human cell types in normoxia or hypoxia for 6 hr and 18 hr; format: cell-based;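 on mRNA expression level, #1 HY 18 hr: cell type #1 is adipocyte from subcutaneous adult adipose tissue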;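 on mRNA expression level, #1 HY 6 hr: cell type #1 is adipocyte from subcutaneous adult adipose tissue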;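 on mRNA expression level, #1 NO: cell type #1 is adipocyte from subcutaneous adult adipose tissue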;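 on mRNA expression level, #2 HY 18 hr: cell type #2 is fetal cardiomyocyte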;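 on mRNA expression level, #2 HY 6 hr: cell type #2 is fetal cardiomyocyte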;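 on mRNA expression level, #2 NO: cell type #2 is fetal cardiomyocyte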;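 on mRNA expression level, #3 HY 6 hr: cell type #3 is human umbilical vein endothelial cells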;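 on mRNA expression level, #3 NO: cell type #3 is human umbilical vein endothelial cells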;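 on mRNA expression level, #4 HY 18 hr: cell type #4 is adult dermal fibroblast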;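 on mRNA expression level, #4 HY 6 hr: cell type #4 is adult dermal fibroblast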;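 on mRNA expression level, #4 NO: cell type #4 is adult dermal fibroblast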;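 on mRNA expression level, #5 HY 6 hr: cell type #5 is adult hepatocyte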;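 on mRNA expression level, #5 NO: cell type #5 is adult hepatocyte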;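 on mRNA expression level, #6 HY 6 hr: cell type #6 is blood-derived macrophage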;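 on mRNA expression level, #6 NO: cell type #6 is blood-derived macrophage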
Procedure, shortened: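 Values are each gene's expression relative to its median over all cell types and conditions, after per-array normalisation to control genes and merging of replicate arrays. Cells were 11 human types, mostly unmodified primary cultures, kept in normoxia or exposed to hypoxia for 6 hr or 18 hr.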

human macrophages = assay: Custom gene array, macrophages with no cytokines, IL-10 or LPS + IFN, in normoxia and hypoxia; format: cell-based; details: for mRNA EXPRESSION (experimental condition) #1: #1 no cytokines/normoxia; for mRNA EXPRESSION (experimental condition) #2: #2 no cytokines/hypoxia; for mRNA EXPRESSION (experimental condition) #3: #3 IL-10/normoxia; for mRNA EXPRESSION (experimental condition) #4: #4 IL-10/hypoxia; for mRNA EXPRESSION (experimental condition) #5: #5 LPS/IFN/normoxia; for mRNA EXPRESSION (experimental condition) #6: #6 LPS/IFN/hypoxia
Description: Macrophages were derived and cultured as described elsewhere in the specification. A total of 6 experimental conditions were analysed, as shown below. Where cells were treated with cytokines or hypoxia (0.1% oxygen), this was for 6 hr. Lipopolysaccharide (LPS) (from E.coli 026:B6; Sigma), gamma Interferon (IFN) and Interleukin-10 (IL-10) were all used at a final concentration of 100 ng/ml. The effect of gamma Interferon and Lipopolysaccharide is to activate macrophages, with a Th1 biased phenotype, as found in many inflammatory conditions. Interleukin-10 is a Th2 cytokine and de-activates macrophages, and suppresses their effector functions.

[2] = test system: human breast and ovary tumors; assay: Custom gene array, breast and ovary tumors versus normal adjacent tissue; details: Table 18
From the text: A study has been performed to examine the expression of these genes in a selection of breast and ovary tumors, comparing expression with normal adjacent tissue from the same patient. There is expected to be a large degree of variation between different patients, and the study here contains only 5 patients with a range of diagnoses.
Patients are designated as Letters:
E: person. Diagnosis: ovarian adenocarcinoma. Normal ovarian tissue derived from an age-matched separate individual.
: person. Diagnosis: poorly differentiated adenocarcinoma. Normal ovarian tissue derived from the same individual.
G: person. Diagnosis: moderately-differentiated adenocarcinoma. Normal ovarian tissue derived from the same individual.
H: person. Diagnosis: invasive ductal carcinoma. Normnal breast tissue derived from the same individual.
K: person. Diagnosis: invasive ductal carcinoma. Normal breast tissue derived from the same individual.
Data normalisation was done per-chip to correct for differences in labelling and hybridization efficiency. Per-gene normalisation was done such that the expression values of each gene are relative to the median value of that gene throughout the series of samples. By comparing the expression values under normal (nor) and tumor (turn) for a single patient, differences in expression between the normal and malignant tissue of that patient can be inferred.

[3] = Table 16, referenced to median of the gene over 6 conditions
[4] = Table 15, referenced to the median value of that gene throughout all 6 conditions

B1: p1G20 (nucleic acid, listed as Homo Sapiens)
DNA: GAGTAGGAGTGCCTCCTTGTCTGCACTGCTGGTATGGGGTTAGGCCAGGTAGGACATTCCAGAGGGGCTTCTGAAAACCAAGAGTCCCTGGGGAAAGGGAACAGAGTAAGGCAGGCCTTGTTCTCACTGCCCTCTAAGGGAACTTGGTCACTCGGCACTTTTAAGCCTCAGTTTCTCCAGTTCAATAATAAGGACAAGAGCTTTTCCCATGCATTCTCTTTCCCCGGGAAAGTTGACTGAGGTGACCAGTAATAGAATTGAAAAGGGAGAGTGTCTTCAGTGCAATGTGGCATCCTGGATTGGGTCTTGGAACAAAAACAGGACATTAGTGGGAAAATTGGAAATCTGAAAAAAGTCTGAATTTTAGTTAATATACCAATTTCAGTCTCTTGGTTTTGACAGATGTACCATGGTGATGTAAGATGTTGACCTTGGGGTAGGCTGGGTGAAGGGTATACAGGAACTCTTTGTACTATCTCTGCAACTTCTCTGTAAATCTAGTATCATTCCAAAATAAAAGTTTATTTAATTTAAAAAAAAAA
[1]; DOWN, 18 hr cardiomyocyte
  HIGHEST FOLD CHANGE IN HYPOXIA (hr hypoxia + cell type): 4.17 DOWN (18 hr cardiomyocyte) ^ fold
[1]; cell type #1, HY (hypoxia) 6 hr
  mRNA expression level: 0.48
[1]; cell type #1, HY (hypoxia) 18 hr
  mRNA expression level: 0.50
[1]; cell type #1, NO (normoxia)
  mRNA expression level: 0.74
[1]; cell type #2, HY (hypoxia) 6 hr
  mRNA expression level: 0.66
[1]; cell type #2, HY (hypoxia) 18 hr
  mRNA expression level: 0.36
[1]; cell type #2, NO (normoxia)
  mRNA expression level: 1.54
[1]; cell type #3, HY (hypoxia) 6 hr
  mRNA expression level: 1.26
[1]; cell type #3, HY (hypoxia) 18 hr
  mRNA expression level: 1.03
[1]; cell type #3, NO (normoxia)
  mRNA expression level: 1.64
[1]; cell type #4, HY (hypoxia) 6 hr
  mRNA expression level: 0.84
[1]; cell type #4, HY (hypoxia) 18 hr
  mRNA expression level: 0.84
[1]; cell type #4, NO (normoxia)
  mRNA expression level: 0.99
[1]; cell type #5, HY (hypoxia) 6 hr
  mRNA expression level: 1.19
[1]; cell type #5, NO (normoxia)
  mRNA expression level: 1.34
[1]; cell type #6, HY (hypoxia) 6 hr
  mRNA expression level: 0.98
[1]; cell type #6, NO (normoxia)
  mRNA expression level: 1.29
Human macrophages; [3]
  mRNA EXPRESSION (experimental condition) #1: 1.45
  mRNA EXPRESSION (experimental condition) #2: 0.73
  mRNA EXPRESSION (experimental condition) #3: 1.60
  mRNA EXPRESSION (experimental condition) #4: 1.12
  mRNA EXPRESSION (experimental condition) #5: 0.57
  mRNA EXPRESSION (experimental condition) #6: 0.44

B2: p1E19 (nucleic acid, listed as Homo Sapiens)
DNA: TTTTTTTTCCTAGTTTCATTAAAGATGGAGTTCATATTTGTTTCTCATATTAATTTTTAAGACAAAAAAAAGCAGAACTGTTTTCACCCATTAAGTTAAAAACTGGAATTTTACCTTTCCAAACTTATTTCCTACCTTGCCCCTTTTCATGTTAATACCATGAACTATTCAGTAATTCTCTTCAAGCTCCATAATTTCCTACTTTCTACTTTTGCTCATTATTTCCATTCCAAGGGAAAGTTCTGTGTGCGTGTCTATTTCTATGTTCAAATTACACCTGTAAGATCCAACTCACAGGGCCATTGCCCTCTAGGGGTCTCTCCTGGATCCACTTCAACAGGAGGTAATTTTATCTNCACCGGATACCATTTCCTCCTTGGACACTTACCTCTTTTANGGGGACTCCCGAGGGTTGAGGGGGNG
modifications: EST array clone; misc_feature 356, 397, 422: n = A,T,C or G
[1]; cell type #1, hypoxia 6 hr
  mRNA expression level, #1 HY 6 hr: 0.65
[1]; cell type #1, hypoxia 18 hr
  mRNA expression level, #1 HY 18 hr: 0.62
[1]; cell type #1, normoxia
  mRNA expression level, #1 NO: 0.79
[1]; cell type #2, hypoxia 6 hr
  mRNA expression level, #2 HY 6 hr: 2.37
[1]; cell type #2, hypoxia 18 hr
  mRNA expression level, #2 HY 18 hr: 2.99
[1]; cell type #2, normoxia
  mRNA expression level, #2 NO: 2.64
[1]; cell type #3, hypoxia 6 hr
  mRNA expression level, #3 HY 6 hr: 1.61
[1]; cell type #3, hypoxia 18 hr
  mRNA expression level, #3 HY 18 hr: 1.77
[1]; cell type #3, normoxia
  mRNA expression level, #3 NO: 2.10
[1]; cell type #4, hypoxia 6 hr
  mRNA expression level, #4 HY 6 hr: 0.40
[1]; cell type #4, hypoxia 18 hr
  mRNA expression level, #4 HY 18 hr: 0.64
[1]; cell type #4, normoxia
  mRNA expression level, #4 NO: 0.61
[1]; cell type #5, hypoxia 6 hr
  mRNA expression level, #5 HY 6 hr: 0.89
[1]; cell type #5, normoxia
  mRNA expression level, #5 NO: 0.42
[1]; cell type #6, hypoxia 6 hr
  mRNA expression level, #6 HY 6 hr: 0.76
[1]; cell type #6, hypoxia 18 hr
  #6 HY 18 hr (mRNA expression level): 1.08
[1]; cell type #6, normoxia
  mRNA expression level, #6 NO: 0.68
[1]; cell type #7, hypoxia 6 hr
  #7 HY 6 hr (mRNA expression level): 0.50
[1]; cell type #7, hypoxia 18 hr
  #7 HY 18 hr (mRNA expression level): 0.32
[1]; cell type #7, normoxia
  #7 NO (mRNA expression level): 0.41
[1]; cell type #8, hypoxia 6 hr
  #8 HY 6 hr (mRNA expression level): 0.90
[1]; cell type #8, hypoxia 18 hr
  #8 HY 18 hr (mRNA expression level): 0.47
[1]; cell type #8, normoxia
  #8 NO (mRNA expression level): 0.38
[1]; cell type #9, hypoxia 6 hr
  #9 HY 6 hr (mRNA expression level): 1.11
[1]; cell type #9, hypoxia 18 hr
  #9 HY 18 hr (mRNA expression level): 1.17
[1]; cell type #9, normoxia
  #9 NO (mRNA expression level): 1.30
[1]; cell type #10, hypoxia 6 hr
  #10 HY 6 hr (mRNA expression level): 1.52
[1]; cell type #10, hypoxia 18 hr
  #10 HY 18 hr (mRNA expression level): 1.39
[1]; cell type #10, normoxia
  #10 NO (mRNA expression level): 1.29
[1]; cell type #11, hypoxia 6 hr
  #11 HY 6 hr (mRNA expression level): 1.69
[1]; cell type #11, hypoxia 18 hr
  #11 HY 18 hr (mRNA expression level): 1.39
[1]; cell type #11, normoxia
  #11 NO (mRNA expression level): 1.14
[1]; hypoxia/normoxia induction ratio, 6 hr hepatocyte
  HIGHEST FOLD CHANGE IN HYPOXIA (hr hypoxia + cell type): 2.13 (6 hr hepatocyte) fold
[2]; breast, normal adjacent tissue, patient H
  gene expression level on custom gene array, Breast nor H: 2.38
[2]; breast, normal adjacent tissue, patient K
  gene expression level on custom gene array, Breast nor K: 1.19
[2]; breast, tumor tissue, patient H
  gene expression level on custom gene array, Breast tum H: 2.49
[2]; breast, tumor tissue, patient K
  gene expression level on custom gene array, Breast tum K: 1.78
[2]; ovary, normal adjacent tissue, patient E
  gene expression level on custom gene array, Ovary nor E: 1.00
[2]; ovary, normal adjacent tissue, patient F
  gene expression level on custom gene array, Ovary nor F: 1.38
[2]; ovary, normal adjacent tissue, patient G
  gene expression level on custom gene array, Ovary nor G: 0.20
[2]; ovary, tumor tissue, patient E
  gene expression level on custom gene array, Ovary tum E: 2.04
[2]; ovary, tumor tissue, patient F
  gene expression level on custom gene array, Ovary tum F: 1.30
[2]; ovary, tumor tissue, patient G
  gene expression level on custom gene array, Ovary tum G: 1.19

B3: p2L23 (nucleic acid, listed as Homo Sapiens)
DNA: GGAGCTGTTTACCCCCACTCTAATAGGGGTTCAATATAAAAAGCCGGCAGAGAGCTGTCCAAGTCAGACGCGCCTCTGCATCTGCGCCAGGCGAACGGGTCCTGCGCCTCCTGCAGTCCCAGCTCTCCACCACCGCCGCGTGCGCCTGCAGACGCTCCGCTCGCTGCCTTCTCTCCTGGCAGGCGCTGCCTTTTCTCCCCGTTAAAGGGCACTTGGGCTGAAGGATCGCTTTGAGATCTGAGGAACCCGCAGCGCTTTGAGGGACCTGAAGCTGTTTTTCTTCGTTTTCCTTTGGGTTCAGTTTGAACGGGAGGTTTTTGATCCCTTTTTTTCAGAATGGATTATTTGCTCATGATTTTCTCTCTGCTGTTTGTGGCTTGCCAAGGAGCTCCAGAAACAGCAGTCTTAGGCGCTGAGCTCAGCGCGGTGGGTGAGAACGGCGGGGAGAAACCCACTCCCAGTCCACCCTGGCGGCTCCGCCGGTCCAAGCGCTGCTCCTGCTCGTCCCTGATGGATAAAGAGTGTGTCTACTTCTGCCACCTGGACATCATTTGGGTCAACACTCCCGAGCACGTTGTTCCGTATGGACTTGGAAGCCCTAGGTCCAAGAGAGCCTTGGAGAATTTACTTCCCACAAAGGCAACAGACCGTGAGAATAGATGCCAATGTGCTAGCCAAAAAGACAAGAAGTGCTGGAATTTTTGCCAAGCAGGAAAAGAACTCAGGGCTGAAGACATTATGGAGAAAGACTGGAATAATCATAAGAAAGGAAAAGACTGTTCCAAGCTTGGGAAAAAGTGTATTTATCAGCAGTTAGTGAGAGGAAGAAAAATCAGAAGAAGTTCAGAGGAACACCTAAGACAAACCAGGTCGGAGACCATGAGAAACAGCGTCAAATCATCTTTTCATGATCCCAAGCTGAAAGGCAAGCCCTCCAGAGAGCGTTATGTGACCCACAACCGAGCACATTGGTGACAGACTTCGGGGCCTGTCTGAAGCCATAGCCTCCACGGAGAGCCCTGTGGCCGACTCTGCACTCTCCACCCTGGCTGGGATCAGAGCAGGAGCATCCTCTGCTGGTTCCTGACTGGCAAAGGACCAGCGTCCTCGTTCAAAACATTCCAAGAAAGGTTAAGGAGTTCCCCCAACCATCTTCACTGGCTTCCATCAGTGGTAACTGCTTTGGTCTCTTCTTTCATCTGGGGATGACAATGGACCTCTCAGCAGAAACACACAGTCACATTCGAATTC
Human macrophages; [4]
  mRNA EXPRESSION (experimental condition) #1: 1.02
  mRNA EXPRESSION (experimental condition) #2: 0.62
  mRNA EXPRESSION (experimental condition) #3: 0.74
  mRNA EXPRESSION (experimental condition) #4: 0.50
  mRNA EXPRESSION (experimental condition) #5: 11.4
  mRNA EXPRESSION (experimental condition) #6: 10.1
